{"source": "paper PMC2532728", "about": "(Nucleic Acids Research, 2008)", "proteins": {"B1": {"name": "recombinant ZmWHY1 (full-length mature ZmWHY1, lacking the transit peptide) (natural protein)", "chain": "ASSRKAAAVPACPVASPRHSDYFDPRAPPPPRGDGGYGRPPNGAQDGRVFTSYSIYKGKAALSFDPRPPLFVPLDSGAYKVAKEGFVLLQFAPAVATRQYDWTRKQVFSLSVWEIGTLLTLGPTDSCEFFHDPFKGRSEEGKVRKVLKIEPTPDGNGRFFNLSVQNRLINVDESIYIPITKGEFAVIVSTFNYIIPHLMGWSTFVSSIKPEESRPYSRPQSTSEYEWRR"}}, "molecular_target": "the molecule itself", "assay": "SEC", "data": [{"protein": "B1", "values": [{"measurement": "stoichiometry N", "value": 4}]}]}
